Assay results taken from patent publication US10689628B2, “Method of making variant LovD polypeptides” (THE REGENTS OF THE UNIVERSITY OF CALIFORNIA, priority 2009, dated 2020).
Positions count from the first letter of the chain named. Numbers in names are those of the source. Where “and” joins values, the source holds several entries; their conditions need not be identical. Equal values may be shown once. Entries after “also recorded” stand apart in the source; their conditions may differ.

Columns and labels:
Neurospora crassa = assay: Agar diffusion growth inhibition of Neurospora crassa by statins
Experimental: N. crassa was grown on SDA slants for 10 days and spores were harvested with 1% Tween-80. 100 ml of molten SDA was seeded with 0.3-0.5×10^8 spores and poured into a 230×230 mm plate. Colonies from mutation library were cultured in 96 well plates containing 250 μl LB medium (with 35 mg/L kanamycin). The cells were grown at 37° C. to saturation and transferred to duplicated plates. Protein expression was induced with 0.1 mM IPTG at OD600 of 0.5 and the expression was performed at 25° C. for 16 h. 5 mM MJA and 10 mM DMB-SMMP were added to initiate the reaction. After a certain reaction time (45 mins to 4 hours depending on the activity of the parent), cells were removed with centrifugation (2,000 g, 4° C., 5 min). The amount of supernatant spotted on the SDA plate was typically 1-3 μl. The plates were incubated at 30° C. for 16˜18 hours.
N. crassa was grown on SDA slants for 10 days and spores were harvested with 1% Tween-80. 100 ml of molten SDA was seeded with 0.3-0.5×10^8 spores and poured into a 230×230 mm plate. Colonies from mutation library were cultured in 96 well plates containing 250 μl LB medium (with 35 mg/L kanamycin). The cells were grown at 37° C. to saturation and transferred to duplicated plates. Protein expression was induced with 0.1 mM IPTG at OD600 of 0.5 and the expression was performed at 25° C. for 16 h. 5 mM MJA and 10 mM DMB-SMMP were added to initiate the reaction. […]

LovD [1] = biological target: T1, LovD (Aspergillus terreus, UniProt Q9Y7D1); assay: LovD transacylation of monacolin J with acyl-thioesters / acyl-CoAs (conversion by HPLC); type: biochemical; conditions: 10 μM LovD, 1 mM monacolin J, 4 mM acyl-thioester, 50 mM HEPES, pH 7.9, 25° C., 10 hours; HPLC 238 nm
T1 construct: made in house; host or cells: E. coli BL21(DE3)/pAW31
T1 sequence (Q9Y7D1 whole entry): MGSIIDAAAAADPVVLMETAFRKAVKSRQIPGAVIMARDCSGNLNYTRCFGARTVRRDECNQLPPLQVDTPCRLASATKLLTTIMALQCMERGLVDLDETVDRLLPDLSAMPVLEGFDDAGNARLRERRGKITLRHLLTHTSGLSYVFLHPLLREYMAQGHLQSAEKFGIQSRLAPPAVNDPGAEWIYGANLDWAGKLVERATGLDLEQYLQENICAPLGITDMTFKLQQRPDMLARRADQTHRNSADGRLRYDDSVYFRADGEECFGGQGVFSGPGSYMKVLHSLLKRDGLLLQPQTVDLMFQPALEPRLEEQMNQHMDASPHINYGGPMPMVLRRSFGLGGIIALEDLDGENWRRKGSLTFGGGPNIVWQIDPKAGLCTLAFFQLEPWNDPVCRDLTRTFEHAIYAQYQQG
Experimental: Assays were performed with 1 mM monacolin J, 4 mM acyl-CoA and 10 uM LovD for 10 hours.

LovD [2] = biological target: T1, LovD; assay: Initial velocities of thioester substrates with pure LovD; type: biochemical; conditions: 1 mM MJ, 4 mM thioester substrate, 10 uM pure LovD, 50 mM HEPES, pH 7.9
[3] = Native gel / SDS-PAGE of LovD proteins (oligomer, insoluble protein); type: physicochemical; conditions: DTT fixed at 2 mM
Experimental: FIG. 2. (a) SDS-PAGE gel LovD protein (WT) from E. coli BL21(DE3)/pAW31; (b) native gel of LovD protein (WT) and A1-A8 respectively, DTT was fixed at 2 mM for all samples.
LovD protein was purified to homogeneity by one step Ni-NTA column (FIG. 2a). […] The disulfide bonds between the proteins are spurious for protein crystallization because the monomer and oligomer are different species (see, e.g. Nemoto et al., 2006; J Appl Physiol 100(5):1688-91). One of our purposes was to remove the intermolecular disulfide bonds. By replacing the cysteine residues with alanine, we hope the resultant LovD mutant can keep the acyl-transferase activity while breaking the intermolecular disulfide bonds. […] We reasoned that the solubility of LovD may be changed when the intermolecular disulfide bonds between wild type LovD was eliminated (see, e.g. Lindberg et al., M. 2004; Proc Natl Acad Sci USA 101(45):15893-8).
We ran the native gel of all the mutant proteins together with the wild type LovD protein (FIG. 2b).

MJ acid and DMB-S-MMP = assay: Kinetic assay of LovD wild type and mutants towards MJ acid and DMB-S-MMP; type: biochemical; conditions: for Km / kcat: DMB-S-MMP fixed at 2 mM, MJ acid 0.25 mM to 2.0 mM
Experimental: Dimethyl sulfoxide (DMSO) was added to a final concentration of 10% to facilitate the solubilization of DMB-S-MMP. To compare the turnover rate of all mutants and the wild type protein, the MJ acid concentration was set at 1 mM and the DMB-S-MMP was set at 2 mM, the protein concentration was fixed at 10 uM, after the reaction was performed at room temperature for 2 hours, the reaction was quenched by adding EA/2% TFA. The organic phase was dried and redissolved in ACN for HPLC analysis.
The concentration of DMB-S-MMP was fixed at 2 mM and MJ acid concentration was varied from 0.25 mM to 2.0 mM. […] For the rest LovD mutant proteins, we only checked the conversion of one time point.
To obtain KM values for MJA and kcat, the DMB-SMMP concentration was fixed at 2 mM, while the concentration of MJA was varied from 0.25 to 5 mM. To obtain KM values for DMB-SMMP and kcat, the MJA concentration was fixed at 2 mM, while the concentration of DMB-SMMP was varied from 0.5 to 5 mM. Dimethyl sulfoxide (DMSO) was added to a final concentration of 10% to facilitate the solubilization of DMB-SMMP. At different time points of the kinetic assay, an aliquot of the reaction mixture was removed, quenched with 1% TFA and extracted with EA containing 1% acetic acid. The organic phase was separated, dried, resolubilized by acetonitrile (ACN) and analyzed by a Beckman Gold HPLC using a reverse phase C18 column (Alltech Apollo 5μ, 150 mm×4.6 mm) and a linear gradient: 60% ACN in water (0.1% trifluoroacetic acid (TFA)) to 95% ACN in water (0.1% TFA) for 10 min, 1 mL/min. Conversion of MJA to SVA was measured by integration of the peaks at 238 nm.

[4] = Soluble LovD protein expression level (Ni-NTA purification, Bradford assay)
Experimental: Each mutant was transformed into E. coli YT2 strain and selected by Kanamycin (Kan). The transformant was grown in 500 ml LB-Kan media at 37° C. to OD600 0.4˜0.6, then 0.1 mM IPTG was added to induce protein expression at 20° C. for 16 hours. Cells were collected by centrifugation, resuspended in 30 ml Buffer A (50 mM Tris-HCl, pH 8.0, 2 mM 2 mM EDTA), and lysed by sonication. Cell debris and insoluble proteins were removed by centrifugation (16,000 g, 4° C., 1 h). To the cleared lysate, 2 ml of Ni-NTA resin (Qiagen) was added. Each mutant was purified using a step gradient of buffer A with increasing concentration of imidazole. Pure (>95%) LovD proteins were eluted in buffer A containing 250 mM imidazole, and then buffer exchanged into buffer A without imidazole. Glycerol was added to a final concentration of 10%, the proteins were aliquoted, and flash frozen.
All nine mutants and the wild type LovD proteins were purified at the same time and under the same conditions. The proteins were purified from 50 ml LB culture. LovD was eluted in the last fraction which contains 250 mM imidazole. The concentration of the last fraction was determined by Bradford Assay using BSA as the standard.
Each expression plasmid encoding LovD mutant was transformed into E. coli BL21(DE3). The transformant was cultured in 50 mL LB medium containing 35 mg/L Kan at 37° C. to optical density (OD600) value of 0.4˜0.6. Protein expression was induced with 0.1 mM IPTG and the subsequent expression was performed at 25° C. for 16 h. Cells were collected by centrifugation (2,000 g, 4° C., 15 min), resuspended in 7 mL Buffer A (50 mM Tris-HCl, pH 8.0, 2 mM DTT, 2 mM EDTA), and lysed by sonication. Cell debris and insoluble proteins were removed by centrifugation (20,000 g, 4° C., 1 h). To the cleared cell lysate, 0.5 mL of Ni-NTA resin (Qiagen, Valencia, Calif.) was added to each sample. […] The protein concentrations were qualitatively assessed by SDS-PAGE and quantitatively determined by the Bradford protein assay using bovine serum albumin (BSA) as the standard.

E. coli YT2 [5] = assay: Whole-cell biocatalysis, MJ acid and DMB-S-MMP to simvastatin acid (Example 1)
Experimental: Whole cell biocatalytic activities based on the conversion from MJ acid and DMB-S-MMP (gray column) and soluble protein expression level comparison between the wild type LovD and the mutants (black column). For the whole cell activity, the LB culture was concentrated 10 times to mimic high density fermentation, 15 mM MJ acid and 18 mM DMB-S-MMP were used to compare the conversion. The conversion based on 8 hours was used to compare the whole cell activity between the wild type LovD and the mutants. The wild type LovD conversion was normalized to 100%, the data points are averaged values of two runs.
The LovD wild type and all mutants were cultured side-by-side for comparison. A single colony of the freshly transformed strains was used to inoculate a 5 ml LB culture supplemented with 35 mg/L kan and grown overnight at 37° C. The next morning, 100 μl of the overnight culture (0.2%) was inoculated into 50 ml LB medium with Kan. When OD600 reached 0.4˜0.6, 0.1 mM IPTG was added to the culture and expression of LovD was performed at 20° C. for 16 hrs. To mimic the high density fermentation conditions, the cells were concentrated 10-fold before addition of substrates. A 14 ml aliquot of the culture was collected by centrifugation (4° C., 4000 g, 10 min). The cell pellet was gently resuspended in 1330 ml of the supernatant, followed by addition of 70 ml of a MJ acid stock solution (300 mM in water) to make final concentration 15 mM. The concentrated culture was then resuspended and separated into seven 200 μl samples, 1 μl of pure DMB-S-MMP was added to each sample (final concentration ˜20 mM). The cultures were then shaken at 300 rpm at room temperature. At each time point, a total extraction was performed by adding 10 μl of 20% SDS to completely lyse the cells, followed by liquid—liquid extraction with 500 μl EA/2% TFA. The organic phase was removed, evaporated, and redissolved in 500 μl ACN for HPLC analysis.
We then tested the in vivo activity of the nine mutants in comparison to the wild type LovD. Both the mutants and the wild type LovD strains were grown in LB media, expressed and concentrated 10 times to mimic the high density fermentation after 16 hours expression at 20° C. Both MJ acid and DMB-S-MMP were added to final 15 mM and 18 mM respectively to start the reaction. At 8 hours, 100 μl sample culture was taken out to check the total conversion from MJ acid to simvastatin acid.

E. coli YT2 [6] = assay: Whole-cell biocatalysis activity of LovD G0 and directed-evolution mutants (SVA synthesis)
Experimental: Wild type LovD and all mutants were cultured in parallel for comparison. A single colony of the freshly transformed YT2 competent cells was used to inoculate a 5 mL LB culture supplemented with 35 mg/L kanamycin. Following overnight growth at 37° C., 100 μl of the culture was inoculated into 50 mL LB medium supplemented with 35 mg/L kanamycin. When OD600 reached 0.4˜0.6, 0.1 mM IPTG was added to the cultures and expression of all LovD variants was performed at 25° C. for 16 hr. To mimic the high density fermentation conditions, the cells were then concentrated 10-fold before addition of substrates. A 10 ml aliquot of each culture was collected by centrifugation (4° C., 2,000 g, 10 min). The cell pellet was gently resuspended in 1 ml of the medium supernatant, followed by addition of 70 μl of MJA (300 mM stock) to a final concentration of 15 mM. The concentrated culture was then divided into seven 200 μl aliquots and 1 μl of pure DMB-SMMP was added to each sample to a final concentration of 20 mM. The small cultures were then shaken at 300 rpm at 25° C. At each time point, a complete extraction of one culture aliquot was performed by adding 10 μl of 20% SDS for cells lysis, followed by extraction with 500 μl ethyl acetate containing 1% trifluoroacetic acid TFA. The organic phase was removed, evaporated, and redissolved in 500 μl acetonitrile for HPLC analysis. The whole-cell activity was determined by fitting the linear regions of the conversion time course plot.
Parent LovD G0 and all mutants were cultured in parallel for comparison. A single colony of the freshly transformed YT2 competent cells was used to inoculate a 5 mL LB culture supplemented with 35 mg/L kanamycin. Following overnight growth at 37° C., 100 μl of the culture was inoculated into 50 mL LB medium supplemented with 35 mg/L kanamycin. When OD600 reached 0.4˜0.6, 0.1 mM IPTG was added to the cultures and expression of all LovD variants was performed at 25° C. for 16 hr. To mimic the high density fermentation conditions, the cells were then concentrated 10-fold before addition of substrates. A 10 ml aliquot of each culture was collected by centrifugation (4° C., 2,000 g, 10 min). The cell pellet was gently resuspended in 1 ml of the medium supernatant, followed by addition of 70 μl of MJA (300 mM stock) to a final concentration of 15 mM. The concentrated culture was then divided into seven 200 μl aliquots and 1 μl of pure DMB-SMMP was added to each sample to a final concentration of 20 mM. The small cultures were then shaken at 300 rpm at 25° C. At each time point, a complete extraction of one culture aliquot was performed by adding 10 μl of 20% SDS for cells lysis, followed by extraction with 500 μl ethyl acetate containing 1% trifluoroacetic acid TFA. The organic phase was removed, evaporated, and redissolved in 500 μl acetonitrile for HPLC analysis. The whole-cell activity was determined by fitting the linear regions of the conversion time course plot.

CCC(C)(C)C(=O)O[C@H]1C[C@@H](C)C=C2C=C[C@H](C)[C@H](CC[C@@H](O)C[C@@H](O)CC(=O)O)[C@H]21 [SVA, simvastatin acid]
quantity needed to inhibit the growth of N. crassa (in words) (Neurospora crassa): sub-microgram quantities

COC(=O)CSC(=O)c1ccccc1
Conversion (percent monacolin J converted to the corresponding lovastatin analog) (LovD [1]): 70%, 7.6

CCC(C)(C)C(=O)SCCNC(C)=O [DMB-S-NAC, α-dimethylbutyryl-SNAC]
Initial Velocity (ki) (LovD [2]): 0.02 min⁻¹

CCC(C)(C)C(=O)SCC(=O)OC [DMB-S-MTG, dimethylbutyryl-S-methyl thioglycolate]
Initial Velocity (ki) (LovD [2]): 0.03 min⁻¹

CCOC(=O)CCSC(=O)C(C)(C)CC [DMB-S-EMP, dimethylbutyryl-S-ethyl mercaptopropionate]
Initial Velocity (ki) (LovD [2]): 0.70 min⁻¹

CCC(C)(C)C(=O)SCCCC(=O)OC [DMB-S-MMB, dimethylbutyryl-S-methyl mercaptobutyrate]
Initial Velocity (ki) (LovD [2]): 0.78 min⁻¹

C[C@H]1C=C2C=C[C@H](C)[C@H](CC[C@@H](O)C[C@@H](O)CC(=O)O)[C@H]2[C@@H](O)C1 [MJA, monacolin J acid]
quantity needed to inhibit the growth of N. crassa (in words) (Neurospora crassa): hundred milligram quantities

CCCC(=O)SCC(=O)OC
Conversion (percent monacolin J converted to the corresponding lovastatin analog) (LovD [1]): 92%, 6.8

CCC(C)(C)C(=O)SCCC(=O)O [DMB-S-MPA]
Initial Velocity (ki) (LovD [2]): 0.08 min⁻¹

CCC(C)(C)C(=O)SCC(=O)OC [drawing 22]
Conversion (percent monacolin J converted to the corresponding lovastatin analog) (LovD [1]): 17%, 8.5

B1: A1: LovD C40A mutant (protein, UniProt Q9Y7D1 1-413, looked up, variant C40A)
Monacolin J acid …: MGSIIDAAAAADPVVLMETAFRKAVKSRQIPGAVIMARDASGNLNYTRCFGARTVRRDECNQLPPLQVDTPCRLASATKLLTTIMALQCMERGLVDLDETVDRLLPDLSAMPVLEGFDDAGNARLRERRGKITLRHLLTHTSGLSYVFLHPLLREYMAQGHLQSAEKFGIQSRLAPPAVNDPGAEWIYGANLDWAGKLVERATGLDLEQYLQENICAPLGITDMTFKLQQRPDMLARRADQTHRNSADGRLRYDDSVYFRADGEECFGGQGVFSGPGSYMKVLHSLLKRDGLLLQPQTVDLMFQPALEPRLEEQMNQHMDASPHINYGGPMPMVLRRSFGLGGIIALEDLDGENWRRKGSLTFGGGPNIVWQIDPKAGLCTLAFFQLEPWNDPVCRDLTRTFEHAIYAQYQQG
native gel: oligomer / monomer / stability (in words) [3]: slightly more monomers; also recorded: slightly less oligomer
Km (MJ acid and DMB-S-MMP): 680 µM
kcat (MJ acid and DMB-S-MMP): 0.0103 s⁻¹
solubility more than the wild type ([4]; purified from 50 ml LB culture, Bradford): 28%
whole cell activity higher than the wild type (E. coli YT2 [5]; based on 8 hours conversion, wild type normalized to 100%): ~25% and 31%

B2: A3: LovD C60A mutant (protein, UniProt Q9Y7D1 1-413, looked up, variant C60A)
Monacolin J acid …: B1 Monacolin J acid … with A40C, C60A
native gel: oligomer / monomer / stability (in words) [3]: almost all monomers; also recorded: eliminated most of the oligomer
Km (MJ acid and DMB-S-MMP): 660 µM
kcat (MJ acid and DMB-S-MMP): 0.0107 s⁻¹
whole cell activity compared to the wild type (in words) (E. coli YT2 [5]; 8 hours conversion, alanine scanning mutants): slightly higher activity

B3: A1N3: LovD double mutant C40A/C60N, starting point (generation zero) of directed evolution (protein, UniProt Q9Y7D1 1-413, looked up, variant C40A C60N)
Monacolin J acid …: B1 Monacolin J acid … with C60N
faster than the single mutant A1 and N3 (E. coli YT2 [5]; whole cell time course): about 20%
time to convert 15 mM MJ acid into simvastatin acid (E. coli YT2 [5]; whole cell, culture concentrated 10 times, 15 mM MJ acid, 18 mM DMB-S-MMP): ~8 h
whole cell SVA production rate (E. coli YT2 [6]; 25° C.): ~1.7 mM per hour
whole cell activity when expressed at 32° C. (in words) (E. coli YT2 [6]; 32° C.): did not show any activity
whole-cell conversion rate (E. coli YT2 [6]; normalized to 1 in FIG. 13): 1.7 mM/h

B4: GX12: LovD mutant with six mutations: C40A, C60N, A86V, D12G, G275S and A190T (protein, UniProt Q9Y7D1 1-413, looked up, variant C40A C60N A86V D12G G275S A190T)
Monacolin J acid …: B1 Monacolin J acid … with D12G, C60N, A86V, A190T, G275S
improvement of the kcat/Km value compared to wild type enzyme (MJ acid and DMB-S-MMP): 2.83 fold
improvement of the soluble expression level compared to wild type enzyme [4]: 2.3 fold
improvement in whole-cell activity compared to wild type enzyme (E. coli YT2 [6]; 25° C.): 7.5 fold

B5: GX27: LovD mutant with eight mutations: C40A, C60N, A86V, D12G, G275S, A190T, H161Y (printed 11161Y) and K26E (protein, UniProt Q9Y7D1 1-413, looked up, variant C40A C60N A86V D12G G275S A190T H161Y K26E)
Monacolin J acid …: B1 Monacolin J acid … with D12G, K26E, C60N, A86V, H161Y, A190T, G275S
improvement of the kcat/Km value compared to wild type enzyme (MJ acid and DMB-S-MMP): 3.45 fold
improvement of the soluble expression level compared to wild type enzyme [4]: 4 fold
improvement in whole-cell activity compared to wild type enzyme (E. coli YT2 [6]; 25° C.): 11 fold
